In patent US11434267B2, “Peptides having reduced toxicity that stimulate cholesterol efflux” (The Regents of the University of California, priority 2013, dated 2022):
Entries after “also recorded” stand apart in the source; their conditions may differ.

Columns and labels:
ABCA1 [1] = target: T1, ABCA1 (Mus musculus, UniProt P41233); test: ABCA1-dependent cholesterol efflux from [3H]cholesterol-labeled J774 macrophages with and without cAMP; type: cell-based; conditions: cAMP treated J774, dose response, 4 h
T1 construct: treated (18 h) with a cAMP analog to induce ABCA1 protein expression; endogenous in cells; host or cells: J774 macrophages
Source text: Suitable cholesterol efflux assays are described in, e.g., Bielicki, J. K and Oda, M. N., Biochemistry, 41:2089-2096 (2002); Jia et al., Biochem. Biophys. Res. Common., 297:206-213 (2002). In some embodiments, a polypeptide known to mediate cholesterol efflux (e.g., helix 9/10 of Apo A-I) is used to screen for additional mediators of cholesterol efflux in a cell based assay. For example, cell lines in which cholesterol efflux can be enhanced using a cAMP analog that up-regulates ABCA1 protein expression (e.g., J774 macrophages) can conveniently be used to assess the ability of a polypeptide of the present invention to mediate cholesterol efflux. The cells are incubated with labeled cholesterol (e.g., [^3H]cholesterol) under conditions appropriate for cholesterol uptake by the cells. Thus, cAMP or cAMP analogs (e.g., CPT-cAMP) are incubated with the cells for a suitable time before the initiation of cellular cholesterol efflux, i.e., prior to contacting the cells with a test polypeptide. Measurement of labeled cholesterol appearing in the medium is used to determine the cholesterol efflux mediating activity of the test polypeptide.
Aliphatic analogs of ATI-5261 lacking phenylalanine residues retained potent ABCA1 selective cholesterol efflux activity (FIG. 7). J774 macrophages were labeled (48 h) with [^3H]cholesterol and treated (18 h) with a cAMP analog to induce ABCA1 protein expression; cells incubated in the absence of cAMP (left bars) served as controls. […] Peptides were used at a concentration of 30 μg/ml, which was maximal for promoting cholesterol efflux activity. Panel B—Dependence of cholesterol efflux on the concentration of peptides. […] Results are expressed as the difference in cholesterol efflux (%/4 h) observed using cAMP treated vs. non-treated J774 cells. Values are means±SD, n=3.

Wistar rats = test: High-dose IV toxicity of ATI-5261 in rats (plasma ALT, AST, TG, cholesterol); type: in vivo, rat
Description: (§1) Peptides or peptidomeimetics of the invention can be evaluated for toxicity using known assays. Examples of such assays are illustrated in the Examples section. Toxicity is typically assayed in a rat, rabbit, mouse, monkey or dog model. In an illustrative assay such as that described in Example 1, a peptide is administered intravenously using a rabbit or rat model at doses of 3, 30, and 300 mg/kg and vehicle alone is also administered at 48 hour intervals for a total of four injections. Safety chemistry panels including plasma alanine aminotransferase (ALT), aspartate amino transferase (AST), and creatine kinase (CK) can then be determined in the blood. The presence of elevated levels of these enzymes in the blood compared to control normal values is indicative of toxicity. A peptide of the invention is typically considered to be non-toxic or to have little toxicity, when the results using the highest dose, 300 mg/kg in this illustrative assay, are equivalent (fall within the standard deviation) of the values measured for the control animals that received vehicle alone, or are no more than 2 or 3 times background obtained with vehicle alone. In some embodiments, a toxicity assay is performed where the toxicity of a peptide of the invention is compared to that to ATI-5261. […]
(§2) Cytotoxicity of an HDL mimetic peptide ATI-5261 at high doses was evaluated in rats and rabbits (FIG. 1). […]

ABCG1 = target: T2, ABCG1 (Homo sapiens, UniProt P45844); test: ABCG1 mediated cholesterol efflux from BHK cells stably transfected with ABCG1; type: cell-based; conditions: BHK-ABCG1 vs mock, 50 μg peptide/ml, time-course and 4 h
T2 construct: expressed in transfected cells; host or cells: BHK cells, stably transfected
Source text: To further evaluate potential anti-atherogenic mechanisms of CS6253, BHK cells stably transfected with ABCG1 and mock-transfected control cells were labeled with [3H]cholesterol and used in efflux experiments. […] Panel A—Time-course for ABCG1 mediated cholesterol efflux from cells to lipid-free CS6253 peptide or CS6253:POPC complexes. […] Panel B—Comparison between CS6253 and ATI-5261 in mediating cellular cholesterol efflux via ABCG1. [3H]cholesterol labeled BHK cells (ABCG1 vs. mock transfected; left bars, control BHK, right bars, G1-BHK) were incubated with either lipid-free peptide or peptides formulated with POPC.

[2] = test system: New Zealand White rabbits; test: High-dose IV bolus toxicity of ATI-5261 in rabbits (plasma ALT, AST, TG, cholesterol); type: in vivo, rabbit
Source text: as §1, with “In an illustrative assay such as that described in Example 1, a peptide is administered intravenously using a rabbit or rat model at doses of 3, 30, and 300 mg/kg and vehicle alone is also administered at 48 hour intervals for a total of four injections.” left out, “alone.” for “alone. In some embodiments, a toxicity assay is performed where the toxicity of a peptide of the invention is compared to that to ATI-5261.”
as §2
For the experiments in FIG. 2, male chow-fed Wistar rats (Panels A and B) were administered ATI-5261 at doses of 3, 30, and 300 mg/kg as described in FIG. 1. Plasma triglyceride (TG, Panel A) and unesterified cholesterol (Panel B) concentrations were determined enzymatically at the times indicated. […]

ABCA1 [3] = target: T1, ABCA1; test: ABCA1-dependent cholesterol efflux from [3H]cholesterol-labeled J774 macrophages with and without cAMP; type: cell-based; conditions: J774, cAMP vs no cAMP; 10 μg/ml lipid-free

T1 sequence (P41233 whole entry): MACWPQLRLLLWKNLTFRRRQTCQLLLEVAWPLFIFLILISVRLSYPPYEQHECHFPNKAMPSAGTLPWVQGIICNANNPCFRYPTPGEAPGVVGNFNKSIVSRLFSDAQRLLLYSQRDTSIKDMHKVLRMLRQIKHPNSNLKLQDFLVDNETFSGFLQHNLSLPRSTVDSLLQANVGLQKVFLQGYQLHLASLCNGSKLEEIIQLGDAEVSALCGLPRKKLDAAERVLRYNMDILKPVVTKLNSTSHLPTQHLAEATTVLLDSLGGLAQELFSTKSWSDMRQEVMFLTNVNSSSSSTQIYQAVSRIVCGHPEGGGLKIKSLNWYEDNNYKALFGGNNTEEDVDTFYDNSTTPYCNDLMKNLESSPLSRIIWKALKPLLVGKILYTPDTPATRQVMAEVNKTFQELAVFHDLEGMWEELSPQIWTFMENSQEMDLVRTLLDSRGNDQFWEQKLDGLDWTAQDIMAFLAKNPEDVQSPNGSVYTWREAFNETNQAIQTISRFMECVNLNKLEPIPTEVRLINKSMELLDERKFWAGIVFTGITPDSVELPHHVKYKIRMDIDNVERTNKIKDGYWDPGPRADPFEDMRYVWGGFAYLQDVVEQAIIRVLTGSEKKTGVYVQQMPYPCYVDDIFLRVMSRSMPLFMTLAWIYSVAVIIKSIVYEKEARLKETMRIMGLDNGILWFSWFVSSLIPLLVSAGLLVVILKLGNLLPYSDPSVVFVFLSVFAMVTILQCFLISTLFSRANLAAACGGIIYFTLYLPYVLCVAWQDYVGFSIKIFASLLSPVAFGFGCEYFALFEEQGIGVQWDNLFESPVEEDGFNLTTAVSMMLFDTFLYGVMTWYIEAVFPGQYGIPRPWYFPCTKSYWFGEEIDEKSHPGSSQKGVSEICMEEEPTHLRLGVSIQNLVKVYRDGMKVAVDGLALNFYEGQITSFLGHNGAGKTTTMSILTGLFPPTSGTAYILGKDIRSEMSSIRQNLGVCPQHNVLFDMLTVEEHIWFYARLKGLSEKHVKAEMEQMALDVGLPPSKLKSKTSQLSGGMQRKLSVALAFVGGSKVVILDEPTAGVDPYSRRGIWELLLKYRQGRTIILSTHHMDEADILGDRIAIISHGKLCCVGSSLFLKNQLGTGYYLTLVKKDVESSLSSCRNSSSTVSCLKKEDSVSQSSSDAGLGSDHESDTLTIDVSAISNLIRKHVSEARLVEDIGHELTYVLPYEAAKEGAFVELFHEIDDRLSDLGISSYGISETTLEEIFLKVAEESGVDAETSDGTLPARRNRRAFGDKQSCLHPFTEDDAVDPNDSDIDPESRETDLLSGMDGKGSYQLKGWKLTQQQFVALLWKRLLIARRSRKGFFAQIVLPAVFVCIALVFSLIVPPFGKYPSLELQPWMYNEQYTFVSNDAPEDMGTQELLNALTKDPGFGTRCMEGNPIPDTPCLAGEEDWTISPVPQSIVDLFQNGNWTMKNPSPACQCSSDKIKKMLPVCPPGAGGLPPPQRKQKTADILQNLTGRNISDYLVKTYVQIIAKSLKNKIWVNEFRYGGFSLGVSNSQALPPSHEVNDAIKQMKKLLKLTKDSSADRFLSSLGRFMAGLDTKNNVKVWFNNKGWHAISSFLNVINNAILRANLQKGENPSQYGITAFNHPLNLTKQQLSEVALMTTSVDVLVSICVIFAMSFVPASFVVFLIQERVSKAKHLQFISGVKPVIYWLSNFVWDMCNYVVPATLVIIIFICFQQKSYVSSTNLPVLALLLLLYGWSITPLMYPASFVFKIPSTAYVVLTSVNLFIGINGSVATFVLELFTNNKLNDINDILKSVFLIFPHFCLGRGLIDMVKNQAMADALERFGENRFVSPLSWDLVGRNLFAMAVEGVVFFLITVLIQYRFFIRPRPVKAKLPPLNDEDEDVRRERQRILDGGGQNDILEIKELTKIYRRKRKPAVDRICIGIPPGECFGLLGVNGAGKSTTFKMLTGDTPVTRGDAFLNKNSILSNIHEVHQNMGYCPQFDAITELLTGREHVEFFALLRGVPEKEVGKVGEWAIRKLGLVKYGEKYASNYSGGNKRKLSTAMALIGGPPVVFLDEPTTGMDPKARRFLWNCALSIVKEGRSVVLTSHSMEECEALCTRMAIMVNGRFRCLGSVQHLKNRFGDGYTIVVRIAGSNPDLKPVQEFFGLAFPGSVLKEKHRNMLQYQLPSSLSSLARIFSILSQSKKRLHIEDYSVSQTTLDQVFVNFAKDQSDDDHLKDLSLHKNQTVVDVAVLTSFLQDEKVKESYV

In the case of “ATI-5261: HDL mimetic peptide, parent peptide with phenylalanine and arginine residues; toxic at high doses; used as positive control (EVRSKLEEWFAAFREFAEEFLARLKS)”, the “peptide concentration at saturation of cholesterol efflux” value (ABCA1 [1]) is reported as “roughly 3 μg/ml”, the “plasma triglycerides and unesterified cholesterol” value (Wistar rats; IV) is reported as “increased plasma triglycerides and cholesterol” and the “cytotoxic response (plasma ALT, AST)” value (Wistar rats; IV 3, 30, 300 mg/kg at 48 h intervals, 4 injections) is reported as “induced a cytotoxic response”. For the same substance, the “cholesterol efflux via ABCG1” value (ABCG1) was “poorly active”, the “plasma triglycerides and unesterified cholesterol” value ([2]; single IV bolus) was “increased plasma triglycerides and cholesterol” and the “cytotoxic response (plasma ALT, AST)” value ([2]; single IV bolus 3, 30 or 300 mg/kg) was “induced a cytotoxic response”. The “ABCA1-dependent cholesterol efflux activity” value (ABCA1 [3]) was “stimulated an overall greater efflux response; also recorded: stimulated a greater efflux response”.
